Experiment [1] has as its target AA, - MMP-9. In words: SPR; - MMP-9 (uncleaved, masked AA). For orientation: Surface plasmon resonance follows binding to a sensor surface in real time, without labels.
Experiment [2] has as its target AA, + MMP-9. In words: SPR; + MMP-9 (activated AA).

Here are results for one molecule from patent US20130309230A1 (published 2013).

B1: VEGF (ligand)
chain: APMAEGGGQNHHEVVKFMDVYQRSYCHPIETLVDIFQEYPDEIEYIFKPSCVPLMRCGGCCNDEGLECVPTEESNITMQIMRIKPHQGQHIGEMSFLQHNKCECRPKKDRARQENPCGPCSERRKHLFVQDPQTCKCSCKNTDSRCKARQLELNERTCRCDKPRR
Regarding B1, the dissociation constant Kd was greater than 200 nM in experiment [1] and 0.35 nM in experiment [2].

Broadly, the Kd is the concentration at which binding is half-saturated.
